Experimental data taken from US7166733B2, “O,O'-Amidomalonate and N,O-Amidomalonate platinum complexes” (priority 2000, dated 2007).

Tests used:
[1] = Dependence on pH of the isomer ratio of O,O′—Pt to N,O—Pt chelate (195Pt NMR of timed aliquots); type: physicochemical
Protocol: The percent of O,O′- and N,O-chelate in timed aliquots of reactions mixtures were determined by removing enough of the reaction mixture (4–15 mL depending on concentration) to give greater than 100 mg of Pt-chelate if only ^195Pt NMR spectroscopy was to be done or about 200 mg if % Pt, and % H2O were also to be determined. The aliquots were purified by ultrafiltration using a Centricon Plus-20 centrifugal filter with a 5 kDa Biomax membrane from Millipore. The charged device was spun at the recommended RCF until less than 1 mL remained. The filtrate was discarded, the retentate was diluted with 15–18 mL water and the sample was centrifuged. This was repeated once more, and the retentate was lyophilized to give the sample for analysis.
^195Pt NMR spectra were obtained from a filtered 0.70 mL solution in 93/7 H2O/D2O in a 5 mm tube. Enough sample (80–120 mg) was used to give a solution that was >50 mM in platinum. The probe was tuned for each sample. A pulse width of 90 degrees, an acquisition time of 10 msec, a spectral window of 100 kHz and no delay was used. The transmitter was tuned to approximately midway between the O,O′—Pt and N,O—Pt chelates shifts (−1896 ppm for cis-diammine Pt and at −2450 for DACH—Pt). Between 50,000 and 1 million transients were typically required to obtain a sufficient (>35:1) s/n ratio for the cis-diammine-Pt and DACH=Pt species, respectively. The resulting FID was increasingly left-shifted until a flat baseline was obtained, a 100 Hz line broadening was applied, and a Fourier fill of 2048 was applied before processing. Integral regions were set and the spectrum's baseline was subjected to a spline fit using VNMR software v6.1. The sample was referenced externally to a 100 mM sample of K2PtCl4 in 95/5H2O/D2O and 100 mM HCl at −1624 ppm. This was also used to determine the 90 degree pulse width and T1.
Four 50 mL Centrifuge tubes were each charged with 1.00 g of p(HPMA)-GFLG-Ama=Pt(NH3)2 (either 100% N,O-chelate) or a 92% O,O-chelate, 8% N,O-chelate mixture. These materials were dissolved in 27 mL Milli-Q water (approx a 4 wt % solution) and adjusted to the pH ranges desired using 1 M NaOH or 5% HClO4 as appropriate. The samples were then heated, with stirring, in a 38° C. water bath and maintained within their specified pH ranges. Timed aliquots were taken and frozen until a suitable time at which point the solutions were concentrated by centrifugal ultrafiltration (one spin down at 4800 rpm, 30° C.) and then transferred to an NMR tube. A small amount of D2O was added to each tube and the ^195Pt NMR spectra were recorded.

[2] = Platinum release from PBS; type: physicochemical; conditions: 37° C.
Protocol: The percent of small platinum species released over time was measured by dissolving about 30 mg of the polymer-platinum conjugate in 15 mL of phosphate buffered saline (10 mM phosphate, 123 mM Cl^−) and incubating the solution at 37° C. in a water bath. At indicated times, 2.0 mL aliquots were transferred to a centrifugal filter with a 3 kDa nominal molecular weight cutoff (Centricon YM-3 from Millipore) and spun until >1.5 mL of filtrate had accumulated. The timed filtrates and the original solution were analyzed for platinum by ICP-OES. The percent of small Pt species released was determined using the formula: ((ppm Pt in filtrate)/(ppm Pt in stock solution))×100.

Bl6FI0 melanoma cells = assay: Clonogenic (colony-formation) assay; type: cell-based, murine; conditions: 7 days incubation
Protocol: The relative cytotoxic activity of various O,O′—Pt chelate analogs were evaluated in vitro by means of a clonogenic (colony-formation) assay employing a tissue culture of Bl6FI0 melanoma cells. In this way, the activity of the analogs was compared to that of cisplatin and carboplatin. The effect of conversion to an N,O—Pt chelate was also evaluated. Briefly, cells were seeded into culture dishes and allowed to attach. The cultures were incubated for 7 days in medium containing the desired concentration of the test agent. After fixation, the number of cell clusters containing >50 cells was scored as a colony. Each concentration of test agent was assayed in triplicate. The mean number of colonies in each of the triplicate dishes was divided by the mean number of colonies in the control (no test agent) dishes to obtain a percent survival value for each concentration of test agent. The IC50 (concentration resulting in 50% inhibition of growth) of each of the agents was determined by linear regression analysis using the data values directly above and below the 50% survival point.

[3] = Single-dose IV maximum tolerated dose study; type: in vivo; conditions: mice, highest dose with no drug-induced deaths
Source text: For these studies, the MTD was defined as the highest dose evaluated in which no mouse deaths resulted from drug-induced toxicity.

[4] = pH 5.0–5.5, 38° C., 100 mM ClO4^−, 1 h
[5] = pH 5.0–5.5, 38° C., 100 mM ClO4^−, 5 h
[6] = pH 5.0–5.5, 38° C., 100 mM ClO4^−, 8 h
[7] = pH 5.0–5.5, 38° C., 100 mM ClO4^−, 22 h
[8] = pH 5.0–5.5, 38° C., 100 mM Cl^−, 1 h
[9] = pH 5.0–5.5, 38° C., 100 mM Cl^−, 5 h
[10] = pH 5.0–5.5, 38° C., 100 mM Cl^−, 8 h
[11] = pH 5.0–5.5, 38° C., 100 mM Cl^−, 22 h

poly(HPMA)-GFLG-Ama=Pt(NH3)2, N,O—Pt chelate [Example 4]
N,O— chelate ([1]; pH 3.0–3.5, 38° C., 1 h): 2% | O,O— chelate ([1]; pH 3.0–3.5, 38° C., 1 h): 98% | N,O— chelate ([1]; pH 3.0–3.5, 38° C., 5 h): 0% | O,O— chelate ([1]; pH 3.0–3.5, 38° C., 5 h): 100% | N,O— chelate ([1]; pH 3.0–3.5, 38° C., 20 h): 0% | O,O— chelate ([1]; pH 3.0–3.5, 38° C., 20 h): 100% | N,O— chelate ([1]; pH 4.0–4.5, 38° C., 1 h): 55% | O,O— chelate ([1]; pH 4.0–4.5, 38° C., 1 h): 45% | N,O— chelate ([1]; pH 4.0–4.5, 38° C., 5 h): 44% | O,O— chelate ([1]; pH 4.0–4.5, 38° C., 5 h): 56% | N,O— chelate ([1]; pH 4.0–4.5, 38° C., 20 h): 32% | O,O— chelate ([1]; pH 4.0–4.5, 38° C., 20 h): 68% | N,O— chelate [1, 4]: 90% | O,O— chelate [1, 4]: 10% | N,O— chelate [1, 5]: 88% | O,O— chelate [1, 5]: 12% | N,O— chelate [1, 6]: 77% | O,O— chelate [1, 6]: 23% | N,O— chelate [1, 7]: 75% | O,O— chelate [1, 7]: 25% | N,O— chelate [1, 8]: 91% | O,O— chelate [1, 8]: 9% | N,O— chelate [1, 9]: 92% | O,O— chelate [1, 9]: 8% | N,O— chelate [1, 10]: 89% | O,O— chelate [1, 10]: 11% | N,O— chelate [1, 11]: 87% | O,O— chelate [1, 11]: 13% | N,O— chelate ([1]; pH 5.0–5.5, 38° C., 1 h): 94% | O,O— chelate ([1]; pH 5.0–5.5, 38° C., 1 h): 6% | N,O— chelate ([1]; pH 5.0–5.5, 38° C., 5 h): 85% | O,O— chelate ([1]; pH 5.0–5.5, 38° C., 5 h): 15% | N,O— chelate ([1]; pH 5.0–5.5, 38° C., 20 h): 81% | O,O— chelate ([1]; pH 5.0–5.5, 38° C., 20 h): 19% | N,O— chelate ([1]; pH 6.0–6.5, 38° C., 1 h): 100% | O,O— chelate ([1]; pH 6.0–6.5, 38° C., 1 h): 0% | N,O— chelate ([1]; pH 6.0–6.5, 38° C., 5 h): 100% | O,O— chelate ([1]; pH 6.0–6.5, 38° C., 5 h): 0% | N,O— chelate ([1]; pH 6.0–6.5, 38° C., 20 h): 100% | O,O— chelate ([1]; pH 6.0–6.5, 38° C., 20 h): 0% | Pt release in PBS ([2]; 3 hours): 0.6% | Pt release in PBS ([2]; 24 hours): 2.0% | IC50 (Bl6FI0 melanoma cells): 3.4 µM | maximum tolerated dose (MTD) [3]: 400 mg PVkg
